Results taken from article PMC9191654.

Experiments:
[1] = target: anti-OX40 antibody 1A7 with the Fc hexamer variant E345R/E430G/S440Y (RGY); assay: SEC
[2] = target: anti-OX40 antibody 1A7 with the κ3-11(49–61) light chain graft and the Fc hexamer variant E345R/E430G/S440Y (RGY); assay: SEC

stoichiometry N [1] | stoichiometry N [2] | Binder
6 |  | anti-OX40 antibody 1A7 with the Fc hexamer variant E345R/E430G/S440Y (RGY) (antibody, V domains shown) VH: EVQLVQSGAEVKKPGASVKVSCKASGYTFTDSYMSWVRQAPGQGLEWIGDMYPDNGDSSYNQKFRERVTITRDTSTSTAYLELSSLRSEDTAVYYCVLAPRWYFSVWGQGTLVTVSS VL: DIQMTQSPSSLSASVGDRVTITCRASQDISNYLNWYQQKPGKAPKLLIYYTSRLRSGVPSRFSGSGSGTDFTLTISSLQPEDFATYYCQQGHTLPPTFGQGTKVEIK
 | 6 | anti-OX40 antibody 1A7 with the κ3-11(49–61) light chain graft and the Fc hexamer variant E345R/E430G/S440Y (RGY) (antibody, V domains shown) VH: EVQLVQSGAEVKKPGASVKVSCKASGYTFTDSYMSWVRQAPGQGLEWIGDMYPDNGDSSYNQKFRERVTITRDTSTSTAYLELSSLRSEDTAVYYCVLAPRWYFSVWGQGTLVTVSS VL: DIQMTQSPSSLSASVGDRVTITCRASQDISNYLNWYQQKPGKAPKLLIYDASNRATGIPARFSGSGSGTDFTLTISSLQPEDFATYYCQQGHTLPPTFGQGTKVEIK
